From patent US7063946B2, “Methods, reagents, kits and apparatus for protein function analysis” (Meso Scale Technologies, LLC., priority 2001, dated 2006)

What was measured:
[1] = target: T1, Epha7 (Mus musculus, UniProt Q61772); assay: Kinase inhibitor profiling, autophosphorylation; format: biochemical
T1 construct: autophosphorylation activity from full-length clones Spleen Tyrosine Kinase (SYK) and Eph receptor-A7 (EphA7); host or cells: rabbit reticulocyte lysate, TnT coupled in vitro transcription/translation (cell-free)

[2] = target: T2, IkBa-24pp (SEQ ID NO: 1) (Homo sapiens, UniProt P25963); assay: Single-well 4-spot assay for multiple peptide-protein interactions; format: binding; details: for ECL signal, spot 1 IkBa-24pp: 4-spot plate
T2 construct: two phosphoserines in the DSGLDS motif (chemical modification); purchased New England Peptide, Fitchburg Mass; host or cells: chemical synthesis
Source text: Four phosphopeptides and their cognate binding proteins (Table 14) were selected for an integrated assay of multiple peptide-protein interaction in 4-spot Multi-Array plates. The IkBa-24pp peptide and its binding protein, βTRCP, are described in Example 10. The remaining peptides are derived from the carboxyl terminus of the EGF receptor. These phosphotyrosine containing peptides are recognized by different adaptor or effecter proteins of the receptor tyrosine kinase signaling pathway.
These four peptides were coupled to BSA carrier protein through cystine residue. After purification on PD-10 gel filtration columns, the peptide-BSA conjugates were then deposited on the assay domains of a 4-spot multi-array IPR plate (i.e., in one of the four exposed regions of working electrode defined by the dielectric layer) with an automated micro-dispensing system (Bio-Dot Dispenser, Bio-Dot, Irvine Calif.). Typically about 120 fmole of peptide:BSA conjugate in 0.25 μl was deposited on each spot of a 4-spot multi-array IPR plate. These plates are dried then used or stored under desiccated conditions. A few hours prior to usage the plates were rehydrated and blocked with 3% BSA in PBS. EST clones encoding βTRCP1 (3491843), βTRCP2 (4237375), mCBP (3872466) Grb2 (4398016) and PLCγ (4419252) (Incyte, Palo Alto, Calif.), were isolated using a QIA-prep column (QIAGEN, Los Angeles, Calif.) and used to program protein expression in a Quick coupled SP6 TnT reaction supplemented with Transcend biotin-tRNA label following the manufactures protocol (Promega, Madison Wis.). The in vitro translated and biotin-labeled proteins were then assayed in the 4-spot multi-array IPR plates under conditions described in Example 10. […] By contrast spots 2–4 in the same wells gave low ECL signals. Thus, in this assay format, each peptide not only serves as the capture agent for assaying specific interaction with its binding protein, but also at the same time serves as a control for other peptide-protein interaction to be determined in the same well. […]

T2 sequence (P25963 with tags, fused parts or gaps limits assumed): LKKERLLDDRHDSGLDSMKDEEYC
T1 sequence (Q61772 28-998): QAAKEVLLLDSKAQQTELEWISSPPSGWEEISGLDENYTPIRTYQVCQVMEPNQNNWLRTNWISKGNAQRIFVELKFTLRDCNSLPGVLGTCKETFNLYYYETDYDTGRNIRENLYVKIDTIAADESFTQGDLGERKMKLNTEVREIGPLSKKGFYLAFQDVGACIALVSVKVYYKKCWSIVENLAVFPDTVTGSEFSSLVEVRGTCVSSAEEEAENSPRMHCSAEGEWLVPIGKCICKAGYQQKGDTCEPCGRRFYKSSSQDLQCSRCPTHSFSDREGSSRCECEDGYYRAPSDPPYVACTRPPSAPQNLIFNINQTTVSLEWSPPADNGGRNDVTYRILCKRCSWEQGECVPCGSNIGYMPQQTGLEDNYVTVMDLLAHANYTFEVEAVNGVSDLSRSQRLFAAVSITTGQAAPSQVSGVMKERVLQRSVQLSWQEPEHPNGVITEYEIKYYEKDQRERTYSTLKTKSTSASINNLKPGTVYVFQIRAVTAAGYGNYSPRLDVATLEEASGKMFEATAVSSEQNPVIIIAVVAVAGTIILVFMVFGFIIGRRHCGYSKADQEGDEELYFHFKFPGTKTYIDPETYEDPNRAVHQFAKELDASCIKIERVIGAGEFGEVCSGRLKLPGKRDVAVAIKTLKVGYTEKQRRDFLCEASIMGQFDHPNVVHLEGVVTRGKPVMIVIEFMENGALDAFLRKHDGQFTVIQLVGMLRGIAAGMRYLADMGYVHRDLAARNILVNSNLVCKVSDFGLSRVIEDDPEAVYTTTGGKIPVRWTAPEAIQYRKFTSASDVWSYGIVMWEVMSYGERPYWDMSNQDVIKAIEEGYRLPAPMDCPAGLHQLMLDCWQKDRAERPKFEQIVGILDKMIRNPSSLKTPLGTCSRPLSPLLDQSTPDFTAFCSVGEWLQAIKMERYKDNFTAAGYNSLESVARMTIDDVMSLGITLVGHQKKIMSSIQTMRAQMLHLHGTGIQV

Row | Compound | Inhibition specificity towards Autophosphorylation at 10X IC50, Epha7 [1] | ECL signal, spot 1 IkBa-24pp [2] | fold higher ECL signal from spot 1 than with TnT mixtures containing no exogenous DNA ([2]; spot 1 (IkBa-24pp-BSA conjugate))
1 | Cc1cc2ncc(-c3ccc(O)c(O)c3)nc2cc1C [AG-1433] | H (high inhibition (“H”=less than 25% of the activity remaining)) |  | 
2 | COc1c(C=O)c(O)cc2c1C(=O)c1ccccc1C2=O [Damnacanthal] | H (high inhibition (“H”=less than 25% of the activity remaining)) |  | 
3 | 3872466: IMAGE clone protein: mCBP [compound 3872466] |  | 446 | 
4 | 3491843: IMAGE clone protein: βTRCP1 [compound 3491843] |  | 2466 | 100 fold
